Laboratory results as given in patent US20180311371A1 (Hoffmann-La Roche, published 2018).

Experiments:
[1] = biological target: T1, murine TPBG extracellular domain, huIgG1-Fc-His6 (murine); experiment: ELISA; Fc-TPBG coated; (-) = no binding
T1 construct: also called Fc-TPBG (mo)

[2] = biological target: T2, cynomolgus TPBG extracellular domain, huIgG1-Fc-His6 (cynomolgus); experiment: ELISA; Fc-TPBG coated; (-) = no binding
T2 construct: also called Fc-TPBG (cy)

[3] = biological target: T3, rat TPBG extracellular domain, huIgG1-Fc-His6 (rat); experiment: ELISA; Fc-TPBG coated; (-) = no binding
T3 construct: also called Fc-TPBG (rt)

[4] = biological target: T4, minipig TPBG extracellular domain, huIgG1-Fc-His (minipig); experiment: ELISA; Fc-TPBG coated; mAb titrated from 1 µg/ml
T4 construct: also called Fc-TPBG (mp)

[5] = biological target: T5, human TPBG extracellular domain, huIgG1-Fc-His6 (human); experiment: ELISA; Fc-TPBG coated; mAb titrated from 1 µg/ml
T5 construct: also called Fc-TPBG (hu)

[6] = biological target: T3, rat TPBG extracellular domain, …; experiment: ELISA; Fc-TPBG coated; mAb titrated from 1 µg/ml
[7] = biological target: T6, minipig TPBG, full length, cell surface expressed on CHO-K1 cells (minipig); experiment: cell-based or functional assay
T6 chain: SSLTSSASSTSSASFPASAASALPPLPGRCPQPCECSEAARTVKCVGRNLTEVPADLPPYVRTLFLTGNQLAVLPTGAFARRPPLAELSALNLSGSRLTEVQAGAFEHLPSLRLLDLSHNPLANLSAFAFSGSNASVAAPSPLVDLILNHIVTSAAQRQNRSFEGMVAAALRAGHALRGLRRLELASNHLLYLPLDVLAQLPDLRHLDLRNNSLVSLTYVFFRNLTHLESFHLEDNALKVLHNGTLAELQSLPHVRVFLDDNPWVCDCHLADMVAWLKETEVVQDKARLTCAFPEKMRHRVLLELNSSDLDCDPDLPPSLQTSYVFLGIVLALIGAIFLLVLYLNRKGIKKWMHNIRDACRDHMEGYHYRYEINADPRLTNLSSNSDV

[8] = biological target: T7, human TPBG (trophoblast glycoprotein), full length, cell surface expressed (human, UniProt Q13641 32-420); experiment: cell-based or functional assay
T7 sequence: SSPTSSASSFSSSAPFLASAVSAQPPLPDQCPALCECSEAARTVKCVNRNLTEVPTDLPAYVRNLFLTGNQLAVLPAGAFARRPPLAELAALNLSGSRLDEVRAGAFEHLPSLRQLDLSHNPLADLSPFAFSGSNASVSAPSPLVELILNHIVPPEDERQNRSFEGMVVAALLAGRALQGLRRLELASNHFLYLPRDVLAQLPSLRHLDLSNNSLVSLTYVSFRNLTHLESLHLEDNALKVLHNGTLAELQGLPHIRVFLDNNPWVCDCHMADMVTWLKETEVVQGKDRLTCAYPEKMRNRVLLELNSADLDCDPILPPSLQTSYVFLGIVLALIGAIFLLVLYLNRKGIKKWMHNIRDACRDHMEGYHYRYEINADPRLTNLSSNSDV

[9] = biological target: T7, human TPBG (trophoblast glycoprotein), …; experiment: cell-based or functional assay; remark: listed apart in the source
[10] = biological target: T6, minipig TPBG, full length, cell surface …; experiment: cell-based or functional assay
[11] = biological target: T7, human TPBG (trophoblast glycoprotein), …; experiment: cell-based or functional assay; remark: listed apart in the source
[12] = biological target: T7, human TPBG (trophoblast glycoprotein), …; experiment: cell-based or functional assay; remark: listed apart in the source
[13] = biological target: T7, human TPBG (trophoblast glycoprotein), …; experiment: cell-based or functional assay; remark: listed apart in the source
[14] = biological target: T8, huTPBG (recombinant human TPBG immobilised on the Biacore chip) (human, UniProt Q13641 32-355, limits assumed); experiment: SPR Biacore T200; huTPBG amine-coupled, Fab injected
T8 construct: also called human TPBG antigen
T8 sequence: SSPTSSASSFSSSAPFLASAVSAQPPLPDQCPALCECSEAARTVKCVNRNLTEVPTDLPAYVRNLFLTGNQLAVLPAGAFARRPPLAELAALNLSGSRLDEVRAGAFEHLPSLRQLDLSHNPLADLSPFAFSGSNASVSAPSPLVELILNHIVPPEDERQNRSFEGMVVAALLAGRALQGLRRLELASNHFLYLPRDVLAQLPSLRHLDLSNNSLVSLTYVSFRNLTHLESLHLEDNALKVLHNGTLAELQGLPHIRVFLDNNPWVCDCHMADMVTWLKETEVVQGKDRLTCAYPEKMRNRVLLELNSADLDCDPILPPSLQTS

[15] = biological target: T7, human TPBG (trophoblast glycoprotein), …; experiment: flow cytometry on SW620 clone 4 cells; ratio of MFI; replicate 1
[16] = biological target: T7, human TPBG (trophoblast glycoprotein), …; experiment: flow cytometry on SW620 clone 4 cells; ratio of MFI; replicate 2
[17] = biological target: T9, recombinant extracellular domain of minipig TPBG (Biacore analyte) (minipig); experiment: SPR (Biacore T200): Fab captured on anti-huFab antibody, minipig TPBG injected for 120 s at 4.9-400 nM, dissociation 660 s
T9 chain: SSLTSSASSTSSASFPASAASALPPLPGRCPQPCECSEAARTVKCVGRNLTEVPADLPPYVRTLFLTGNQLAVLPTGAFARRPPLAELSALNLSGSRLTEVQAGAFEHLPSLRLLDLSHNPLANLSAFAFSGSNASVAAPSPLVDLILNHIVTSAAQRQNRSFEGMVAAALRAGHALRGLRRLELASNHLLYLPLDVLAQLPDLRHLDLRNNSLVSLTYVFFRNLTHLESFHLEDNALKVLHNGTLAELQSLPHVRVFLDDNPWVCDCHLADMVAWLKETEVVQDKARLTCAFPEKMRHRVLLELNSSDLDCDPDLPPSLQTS

[18] = biological target: T6, minipig TPBG, full length, cell surface …; experiment: flow cytometry on CHO cells stably expressing minipig TPBG; Fab dilution series 0.01-20 µg/ml, PE-labelled anti-kappa secondary antibody

T1 sequence (chain, as listed by the source limits assumed): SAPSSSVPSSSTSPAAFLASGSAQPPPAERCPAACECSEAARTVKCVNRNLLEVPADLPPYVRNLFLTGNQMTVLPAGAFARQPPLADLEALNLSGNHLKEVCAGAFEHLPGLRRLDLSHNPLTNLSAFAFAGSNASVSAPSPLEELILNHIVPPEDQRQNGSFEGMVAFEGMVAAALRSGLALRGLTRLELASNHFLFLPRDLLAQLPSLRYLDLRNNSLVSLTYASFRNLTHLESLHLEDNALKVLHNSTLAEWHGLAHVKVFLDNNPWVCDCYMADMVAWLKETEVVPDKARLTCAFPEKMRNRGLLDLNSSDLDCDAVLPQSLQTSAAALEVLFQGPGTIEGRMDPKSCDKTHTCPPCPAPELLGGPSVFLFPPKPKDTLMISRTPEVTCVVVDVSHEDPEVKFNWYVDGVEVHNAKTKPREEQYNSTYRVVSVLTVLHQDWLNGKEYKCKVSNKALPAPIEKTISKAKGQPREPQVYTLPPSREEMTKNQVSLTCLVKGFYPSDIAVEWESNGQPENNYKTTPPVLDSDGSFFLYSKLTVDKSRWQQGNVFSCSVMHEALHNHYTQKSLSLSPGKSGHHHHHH
T3 sequence (chain, as listed by the source limits assumed): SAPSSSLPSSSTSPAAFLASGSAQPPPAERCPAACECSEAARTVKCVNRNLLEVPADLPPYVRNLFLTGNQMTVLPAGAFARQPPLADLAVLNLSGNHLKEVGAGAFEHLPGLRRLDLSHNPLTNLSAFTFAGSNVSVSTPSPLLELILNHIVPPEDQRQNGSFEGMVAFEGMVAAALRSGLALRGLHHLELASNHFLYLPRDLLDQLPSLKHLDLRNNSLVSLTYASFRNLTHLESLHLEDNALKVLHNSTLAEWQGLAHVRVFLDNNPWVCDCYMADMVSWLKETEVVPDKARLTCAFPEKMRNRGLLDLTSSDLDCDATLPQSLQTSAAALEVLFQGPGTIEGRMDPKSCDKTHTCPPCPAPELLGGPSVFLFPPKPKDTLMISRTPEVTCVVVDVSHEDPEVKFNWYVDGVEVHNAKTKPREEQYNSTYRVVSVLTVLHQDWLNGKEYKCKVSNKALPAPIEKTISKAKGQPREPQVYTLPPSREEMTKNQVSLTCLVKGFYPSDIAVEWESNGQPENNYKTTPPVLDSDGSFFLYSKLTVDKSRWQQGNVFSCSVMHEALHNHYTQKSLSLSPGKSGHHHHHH
T2 sequence (chain, as listed by the source limits assumed): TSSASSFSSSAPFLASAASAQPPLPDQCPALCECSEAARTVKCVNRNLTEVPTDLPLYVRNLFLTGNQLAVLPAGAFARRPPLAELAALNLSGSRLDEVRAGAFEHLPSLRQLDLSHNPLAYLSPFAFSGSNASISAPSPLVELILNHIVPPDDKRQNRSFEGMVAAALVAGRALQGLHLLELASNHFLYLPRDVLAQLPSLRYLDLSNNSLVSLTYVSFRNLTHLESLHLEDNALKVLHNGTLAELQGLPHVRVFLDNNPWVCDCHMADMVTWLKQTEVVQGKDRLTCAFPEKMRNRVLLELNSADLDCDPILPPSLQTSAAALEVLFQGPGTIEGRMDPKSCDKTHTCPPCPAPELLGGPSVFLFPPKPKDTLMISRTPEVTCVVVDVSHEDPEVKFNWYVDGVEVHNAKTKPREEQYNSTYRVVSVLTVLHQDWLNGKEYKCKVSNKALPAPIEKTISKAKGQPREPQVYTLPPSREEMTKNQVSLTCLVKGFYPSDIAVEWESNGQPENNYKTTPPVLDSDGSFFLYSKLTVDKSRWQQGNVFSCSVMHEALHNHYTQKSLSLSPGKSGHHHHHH

B1: anti-TPBG antibody 097 (mAb) (antibody, V domains shown)
VH: EVQLLESGGGLAQPGGSLRLSCAASGFTFNNDAMTWVRQAPGKGLEWVSAISGSGGSTYYADSVKGRFTISRDNSKNTLYLQMNSLRAEDTAVYYCAKGGSWGDWYYYFYPMDVWGQGTTVTVSS
VL: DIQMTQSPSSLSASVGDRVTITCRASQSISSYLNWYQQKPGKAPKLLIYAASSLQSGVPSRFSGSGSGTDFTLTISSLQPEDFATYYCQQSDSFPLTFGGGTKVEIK
binding result [1]: no binding (tested: titrated from 1 µg/ml)
binding result [2]: no binding (tested: titrated from 1 µg/ml)
binding result [3]: no binding (tested: titrated from 1 µg/ml)
binding result [4]: binds
binding result [5]: binds

B2: anti-TPBG antibody 091 (mAb) (antibody, V domains shown)
VH: EVHLLESGGGLVHPGGSLRLSCAASGFTFRSDAMHWVRQAPGKGLEWVSGVSGSGGSPYYADSVKGRFTISRDDSKTTLYLQMNSLRAEDTAVYYCATGGSIAGSYYYYPMDVWGQGTTVTVSS
VL: DIQMTQSPSSLSASVGDRVTITCQASQDISNYLNWYQQKPGKAPKLLIYAASTLQIGVPSRFSGSGSGTDFTFTISSLQPEDFATYYCQQANSFPLTFGGGTKVEIK
binding result [1]: no binding (tested: titrated from 1 µg/ml)
binding result [4]: binds
binding result [5]: binds
binding result [6]: binds

B3: prior art anti-TPBG antibody H8, Fab fragment (Fab, V domains shown)
VH: EVQLQQSGPDLVKPGASVKISCKASGYSFTGYYMHWVKQSHGKSLEWIGRINPNNGVTLYNQKFKDKAILTVDKSSTTAYMELRSLTSEDSAVYYCARSTMITNYVMDYWGQVTSVTVSS
VL: SIVMTQTPTFLLVSAGDRVTITCKASQSVSNDVAWYQQKPGQSPTLLISYTSSRYAGVPDRFIGSGYGTDFTFTISTLQAEDLAVYFCQQDYNSPPTFGGGTKLEIKR
notes: also called Fab(H8); Fab1
fold lower potency on minipig TPBG cells than on human TPBG cells, sandwich construct [7]: ~100 fold
internalization after 1.0 h, MCF7 cells [8]: 61%
internalization after 2.0 h, MCF7 cells [8]: 79%
EC50 cytotoxicity, Fab + anti-kappa-Fab-PE, CHO-K1/human TPBG, replicate 1 [9]: 0.41 nM
EC50 cytotoxicity, Fab + anti-kappa-Fab-PE, CHO-K1/human TPBG, replicate 2 [9]: 0.52 nM
EC50 cytotoxicity, Fab + anti-kappa-Fab-PE, CHO-K1/minipig TPBG, replicate 1 [10]: 48 nM
EC50 cytotoxicity, Fab + anti-kappa-Fab-PE, CHO-K1/minipig TPBG, replicate 2 [10]: 45.9 nM
EC50 cytotoxicity, Fab-PE sandwich construct, MCF7 [11]: 1.25 nM
EC50 cytotoxicity, Fab-PE sandwich construct, MCF7 (comparison with A1-A3) [12]: 1.85 nM
EC50 cytotoxicity, Fab-PE sandwich construct, H1975, replicate 1 [13]: 0.698 nM
EC50 cytotoxicity, Fab-PE sandwich construct, H1975, replicate 2 [13]: 0.451 nM
EC50 cytotoxicity, Fab-PE sandwich construct, H1975, replicate 3 [13]: 0.656 nM
Kd [14]: 0.00158 nM
koff [14]: 2.17e-07 s⁻¹
kon [14]: 137000 M⁻¹ s⁻¹
Fold change pH 7.2 vs pH 5.5 [15]: 4.2 fold
Fold change pH 7.2 vs pH 5.5 [16]: 6.8 fold
binding result [17]: no binding
binding result [18]: no binding (tested: 20 µg/ml)
